Data set [1] concerns the target T1, hPNPase (human polynucleotide phosphorylase), hPNPase-TS (Homo sapiens, UniProt Q8TCS8).
T1 construct: gene PNPT1; residues 46-783, mitochondrial targeting signal removed, C-terminal Twin-Strep-tag kept, expressed in MEXi-293E cells, homotrimer
T1 sequence (Q8TCS8 46-783): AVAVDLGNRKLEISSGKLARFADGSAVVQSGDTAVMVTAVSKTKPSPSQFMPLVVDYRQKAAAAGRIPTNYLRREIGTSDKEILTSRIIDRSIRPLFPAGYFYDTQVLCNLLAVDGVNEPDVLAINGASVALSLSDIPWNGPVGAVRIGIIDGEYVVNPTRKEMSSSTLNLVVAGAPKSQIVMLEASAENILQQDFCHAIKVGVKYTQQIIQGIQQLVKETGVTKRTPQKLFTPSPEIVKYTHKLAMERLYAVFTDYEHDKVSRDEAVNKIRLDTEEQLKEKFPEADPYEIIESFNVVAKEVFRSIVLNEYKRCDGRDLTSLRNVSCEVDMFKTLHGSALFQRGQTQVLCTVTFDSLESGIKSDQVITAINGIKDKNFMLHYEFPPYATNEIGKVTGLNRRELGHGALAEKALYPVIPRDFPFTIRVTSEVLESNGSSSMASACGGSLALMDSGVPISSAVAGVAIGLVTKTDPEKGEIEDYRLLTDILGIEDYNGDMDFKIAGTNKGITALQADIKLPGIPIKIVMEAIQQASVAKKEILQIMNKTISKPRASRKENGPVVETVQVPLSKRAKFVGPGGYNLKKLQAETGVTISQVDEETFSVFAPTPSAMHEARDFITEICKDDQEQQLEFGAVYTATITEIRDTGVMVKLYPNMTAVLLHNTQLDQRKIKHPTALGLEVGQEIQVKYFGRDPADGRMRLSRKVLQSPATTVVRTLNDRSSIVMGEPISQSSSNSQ
Briefly: cryo-EM structure. The format is binding. The conditions noted are these: 2 mM NaH2PO4, 2 mM MgCl2, pH 8.0; active site of PH2 domain (S482-484, H450, R446), no RNA; co-substrate of phosphorolysis; also in 9NO0 with PT5 RNA.

Data set [2] concerns the molecule itself. Nature of the data set: cryo-EM structure; single-particle cryo-EM of 1.5 uM hPNPase-TS in RNA degradation buffer (10 mM HEPES pH 8.0, 50 mM NaCl, 2 mM MgCl2, 2 mM DTT, 2 mM NaH2PO4); apo (with Pi), RNA loading state (PT5 RNA) and pre-catalytic state (10 mM Na2SO4, 0.1 mM NaH2PO4, RNA); refined in C1.
The target of data set [3] is T2, hPNPase (human mitochondrial polynucleotide phosphorylase) (Homo sapiens, UniProt Q8TCS8 46-783).
T2 sequence: T1 sequence (Q8TCS8 46-783)
Briefly: cryo-EM structure; sulfate in place of phosphate, Mg2+; pre-catalytic state, 2.2 A, 6 nt modelled; Protein SEC buffer: 20 mM HEPES-NaOH pH 8.0, 150 mM NaCl, 1 mM MgCl2, 1 mM DTT, 1% glycerol; competition as in RNA degradation assay (conditions not in material); sulfate 2 mM in the assay replacing phosphate. The settings on record: protein: recombinant; tags: C-terminal Twin-Strep-tag; chain copies: 3; label: 5'-FAM; single strand.

With `O=P(O)(O)O` [Pi, phosphate], the cryo-EM structure entry in data set [1] was “The phosphate ion is present in each protomer and coordinated by S482-484, H450, and R446”.

B1: human polynucleotide phosphorylase (hPNPase), amino acids 46-783, with C-terminal Twin-Strep-tag (enzyme, UniProt Q8TCS8 46-783, looked up)
chain: T1 sequence (Q8TCS8 46-783)
notes: human polynucleotide phosphorylase (hPNPase), amino acids 46-783, without the N-terminal mitochondrial targeting signal; gene codon optimized for human cell lines; S1 domain not modelled in the structures; Cloned into the vector pDSG103 (IBA); Homotrimer in all cryo-EM reconstructions; also called hPNPase-TS; human mitochondrial PNPase; source: MEXi-293E cells, transfected, purified …
Turning to B1, the “stoichiometry N” value in data set [2] worked out at 3.

B2: FAM_PNP_RNA_long (ssRNA)
RNA: CACAACACACACCACACACACAUAAAACAAAACAGCUACGCCAUCCUCCCCCCAAUCUA
Consider B2, for which, in data set [3], the binding result is “binds”.

As usually defined, the stoichiometry N is the number of molecules, sites or subunits per partner or assembly.

These data come from publication PMC12685370, “Loop-mediated regulation and base flipping drive RNA cleavage by human mitochondrial PNPase” (Nucleic Acids Research, 2025).
